# Reference: patent US11865176B2, “Compositions and methods of modulating anti-tumor immunity” (Dana-Farber Cancer Institute, Inc., priority 2016, dated 2024)
# Biological target: T1, regulatory domain of human NFATc3 (residues 1-400) (UniProt Q12968)
# T1 sequence: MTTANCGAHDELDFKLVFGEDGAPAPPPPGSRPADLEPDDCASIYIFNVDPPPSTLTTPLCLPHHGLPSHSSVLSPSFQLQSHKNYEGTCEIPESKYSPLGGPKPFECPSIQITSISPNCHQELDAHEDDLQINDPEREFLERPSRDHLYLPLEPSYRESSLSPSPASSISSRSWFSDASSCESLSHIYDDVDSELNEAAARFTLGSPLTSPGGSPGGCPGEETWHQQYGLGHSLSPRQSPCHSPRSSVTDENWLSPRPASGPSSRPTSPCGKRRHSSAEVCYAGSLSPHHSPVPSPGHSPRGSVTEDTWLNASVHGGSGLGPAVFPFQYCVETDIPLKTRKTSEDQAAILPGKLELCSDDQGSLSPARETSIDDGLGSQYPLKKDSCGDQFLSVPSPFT
substance,measurement,value
recombinant CDK4/cyclin D1,"in vitro phosphorylation of 15N-labeled NFATc3 (1-400), followed by 2D 15N-HSQC NMR","However, this did not occur when NFAT4 was incubated with CDK4"
